# Where a chain is given by its changes, count along the chain named. Names and notes keep the numbering of the source. Like-named read-outs stand apart in the source and are kept apart here.
# B1: h6F12.v1 (antibody, human IgG1, kappa, N297G, V domains shown)
# VH: EVTLKESGPVLVKPTETLTLTCTVSGFSLTTYNVHWVRQPPGKALEWMGLIWNTGGTRYNSALKSRLTISKDTSKSQVVLTMTNMDPVDTATYYCARDPVPNKWHFDFWGPGTLVTVSS
# VL: DIQMTQSPSTLSASVGDRVTITCLASEDIYSNLAWYQQKPGKSPKLLIYDARSLQDGVPSRFSGSESGPEYTLTISSLQPDDFATYFCQQHHAYPFTFGQGTKVEIKR
# B2: h2A10.v1 (antibody, human IgG1, kappa, N297G, V domains shown)
# VH: EVQLVESGGGLVQPGPSLRLSCTASGFDFNSYGMSWVRQAPGKGLELVADIVSKTYNYTTYYSDSVKDRFTISRDDSKSIVYLQMNSLKTEDTAVYYCTVAPGGSFDYWGQGTLVTVSS
# VL: DIQLTQSPSSLSASVGDRVTITCRASQSVSISRFNLMHWYQHKPGKQPKLLIYRASNLASGIPSRFSGSGSGTDFTLTISSLQPEDFATYYCQHSRESPWTFGGGTKVEIKR
# notes: also called humanized 2A10 version 1
# B3: h2A10.v2.N54S (antibody, human IgG1, kappa, N297G, V domains shown)
# VH: B2 VH with V5L, P16G, T23A, N57S, I80T, K89R, T90A
# VL: B2 VL
# B4: h2A10.v2.T56A (antibody, human IgG1, kappa, N297G, V domains shown)
# VH: B2 VH with V5L, P16G, T23A, T59A, I80T, K89R, T90A
# VL: B2 VL
# B5: h2A10.v2.N54Q (antibody, human IgG1, kappa, N297G, V domains shown)
# VH: B2 VH with V5L, P16G, T23A, N57Q, I80T, K89R, T90A
# VL: B2 VL
# B6: h2A10.v3 (antibody, human IgG1, kappa, N297G, V domains shown)
# VH: B2 VH with V5L, P16G, T23A, A49S, N57S, S79N, I80T, V81L, K89R, T90A
# VL: B2 VL with H42Q, Q47A, I62V
# notes: human IgG1
# B7: h4A11.v7.11 (antibody, human IgG1, kappa, N297G, V domains shown)
# VH: EQQLQESGPGLVKPSETLSLTCTVTGFSLSSYTVNWVRQPAGKGLEWIGYISYGGSAYYASWANGRFTISVDSSKNQVSLKLSSVTAADTAVYFCARHMQVGGAPTGSMAAFDPWGPGTLVTVSS
# VL: EAVLTQSPGTLSLSPGERATLSCQSSQSVYNNNYLSWFQQKPGQPPRLLIYGASTLTSGVPDRFSGSGSGTDFTLTISRLEPEDFAVYYCAGGYSGSSDKYAFGGGTKVEIKR
# B8: h4A11.v7.13 (antibody, human IgG1, kappa, N297G, V domains shown)
# VH: B7 VH with V71K, V78F
# VL: B7 VL
# B9: h4A11.v7.5 (antibody, V domains shown)
# VH: B7 VH with V71K
# VL: EAVLTQSPGTLSLSPGERATLSCQSSQSVYNNNYLSWYQQKPGQPPRLLIYGASTLTSGVPDRFSGSGSGTDFTLTISRLEPEDFAVYYCAGGYSGSSDKYAFGGGTKVEIK
# Assays:
# [1] = biological target: T1, human TGFβ2, mature receptor-binding domain (human, UniProt P09858 303-414 (pig entry), The mature TGFβ2 is a disulfide-linked homodimer of this 112-residue chain. The 4A11 epitope spans both monomers (p-1207).); experiment: BIAcore T200
# T1 construct: Peprotech; also called TGFb2
# T1 sequence: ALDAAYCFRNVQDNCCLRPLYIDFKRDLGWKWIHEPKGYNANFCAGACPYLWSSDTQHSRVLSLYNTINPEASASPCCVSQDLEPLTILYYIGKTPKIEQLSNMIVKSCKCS
# [2] = biological target: T2, human TGFβ3, mature dimeric form (human, UniProt P10600 301-412); experiment: cell-based or functional assay
# T2 sequence: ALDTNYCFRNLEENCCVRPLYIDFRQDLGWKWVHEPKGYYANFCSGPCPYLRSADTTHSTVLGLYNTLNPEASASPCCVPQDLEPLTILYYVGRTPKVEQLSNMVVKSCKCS
# [3] = biological target: T3, human TGFβ1, mature receptor-binding domain (human, UniProt P01137 279-390); experiment: cell-based or functional assay
# [4] = biological target: T1, human TGFβ2, mature receptor-binding …; experiment: cell-based or functional assay
# [5] = biological target: T2, human TGFβ3, mature dimeric form; experiment: cell-based or functional assay; remark: listed apart in the source
# [6] = biological target: T3, human TGFβ1, mature receptor-binding …; experiment: cell-based or functional assay; remark: listed apart in the source
# [7] = biological target: T1, human TGFβ2, mature receptor-binding …; experiment: cell-based or functional assay; remark: listed apart in the source
# [8] = biological target: T1, human TGFβ2, mature receptor-binding …; experiment: cell-based or functional assay; remark: listed apart in the source
# [9] = biological target: T2, human TGFβ3, mature dimeric form; experiment: BIAcore T200
# [10] = biological target: T1, human TGFβ2, mature receptor-binding …; experiment: BIAcore T200; remark: listed apart in the source
# [11] = biological target: T2, human TGFβ3, mature dimeric form; experiment: cell-based or functional assay; remark: listed apart in the source
# [12] = biological target: T3, human TGFβ1, mature receptor-binding …; experiment: cell-based or functional assay; remark: listed apart in the source
# [13] = biological target: T1, human TGFβ2, mature receptor-binding …; experiment: cell-based or functional assay; remark: listed apart in the source
# [14] = biological target: T2, human TGFβ3, mature dimeric form; experiment: BIAcore T200; remark: listed apart in the source
# Protocol: (§1) For binding affinity determinations of all humanized 2A10 antibodies, Surface Plasmon Resonance (SPR) measurement with a BIAcore™-T200 instrument was used. Briefly, series S CM5 biosensor chip with protein A was first applied to capture each humanized 2A10 variant to achieve approximately 100 response units (RU) on each flow cell, following by injection of 3-fold serial dilutions of human TGFβ1, TGFβ2 or TGFβ3 (0.02 nM to 5 nM) in HBS-EP buffer (0.01M HEPES pH 7.4, 0.15M NaCl, 3 mM EDTA and 0.05% v/v surfactant P20) at 25° C. with a flow rate of 50 μl/min for kinetics measurement. Association rates (ko.) and dissociation rates (koff) were calculated using a simple one-to-one Langmuir binding model (BIAcore T200 evaluation software version 2.0) to determine the equilibrium dissociation constant (KD), which was calculated as the ratio koff/kₒₙ.
# [15] = biological target: T1, human TGFβ2, mature receptor-binding …; experiment: BIAcore T200; remark: listed apart in the source
# Protocol: as §1
# [16] = biological target: T2, human TGFβ3, mature dimeric form; experiment: cell-based or functional assay; remark: listed apart in the source
# [17] = biological target: T3, human TGFβ1, mature receptor-binding …; experiment: cell-based or functional assay; remark: listed apart in the source
# [18] = biological target: T1, human TGFβ2, mature receptor-binding …; experiment: cell-based or functional assay; remark: listed apart in the source
# [19] = biological target: T2, human TGFβ3, mature dimeric form; experiment: BIAcore T200; remark: listed apart in the source
# Protocol: as §1
# [20] = biological target: T1, human TGFβ2, mature receptor-binding …; experiment: BIAcore T200; remark: listed apart in the source
# Protocol: as §1
# [21] = biological target: T2, human TGFβ3, mature dimeric form; experiment: cell-based or functional assay; remark: listed apart in the source
# [22] = biological target: T3, human TGFβ1, mature receptor-binding …; experiment: cell-based or functional assay; remark: listed apart in the source
# [23] = biological target: T1, human TGFβ2, mature receptor-binding …; experiment: cell-based or functional assay; remark: listed apart in the source
# [24] = biological target: T2, human TGFβ3, mature dimeric form; experiment: BIAcore T200; remark: listed apart in the source
# Protocol: as §1
# (§2) Binding affinity determinations of all humanized 4A11 antibodies were performed using SPR measurement with a BIAcore™-T200 instrument, as described above in Example 6 ([…]).
# [25] = biological target: T1, human TGFβ2, mature receptor-binding …; experiment: BIAcore T200; remark: listed apart in the source
# Protocol: as §1, §2
# [26] = biological target: T2, human TGFβ3, mature dimeric form; experiment: cell-based or functional assay; remark: listed apart in the source
# T3 sequence (P01137 279-390 limits assumed): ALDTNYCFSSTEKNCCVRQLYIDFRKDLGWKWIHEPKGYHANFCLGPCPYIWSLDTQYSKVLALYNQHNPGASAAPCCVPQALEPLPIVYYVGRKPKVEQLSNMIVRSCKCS
binder,measurement,setting,value
B1,Kd,[1],≤ 0.5 pM
same,HEKBlue TGFβ blocking IC50,[2],> 200000 pM
same,HEKBlue TGFβ blocking IC50,[3],> 200000 pM
same,HEKBlue TGFβ blocking IC50,[4],20 pM
same,HEKBlue TGFβ blocking IC50,[5],> 200000 pM
same,HEKBlue TGFβ blocking IC50,[6],> 200000 pM
same,HEKBlue TGFβ blocking IC50,[7],20 pM
same,fold drop in blocking against r6F12,[8],2.5 to 5 fold
B2,binding result,[9],binds
same,binding result,[10],binds
B3,HEKBlue TGFβ blocking IC50,[11],10 pM
same,HEKBlue TGFβ blocking IC50,[12],> 200000 pM
same,HEKBlue TGFβ blocking IC50,[13],> 200000 pM
same,Kd,[14],2.4 pM
same,Kd,[15],425 pM
same,fold drop in TGFβ3 binding against h2A10.v2,[9],< 2 fold
B4,HEKBlue TGFβ blocking IC50,[11],10 pM
same,HEKBlue TGFβ blocking IC50,[12],> 200000 pM
same,HEKBlue TGFβ blocking IC50,[13],> 200000 pM
same,Kd,[14],1 pM
same,Kd,[15],247 pM
B5,HEKBlue TGFβ blocking IC50,[11],10 pM
same,HEKBlue TGFβ blocking IC50,[12],> 200000 pM
same,HEKBlue TGFβ blocking IC50,[13],> 200000 pM
same,Kd,[14],2.5 pM
same,Kd,[15],378 pM
same,fold drop in TGFβ3 binding against h2A10.v2,[9],< 2 fold
B6,HEKBlue TGFβ blocking IC50,[16],50 pM
same,HEKBlue TGFβ blocking IC50,[17],> 200000 pM
same,HEKBlue TGFβ blocking IC50,[18],> 200000 pM
same,Kd,[19],2.6 pM
same,Kd,[20],482 pM
B7,HEKBlue TGFβ blocking IC50,[21],3530 pM
same,HEKBlue TGFβ blocking IC50,[22],> 200000 pM
same,HEKBlue TGFβ blocking IC50,[23],> 200000 pM
same,Kd,[24],21.4 pM
same,Kd,[25],40.1 pM
same,fold loss of blocking against h4A11.v7,[26],118 fold
same,fold loss of blocking against h4A11.v7,[8],> 2000 fold
same,fold drop in binding against h4A11.v7,[9],2 fold
same,fold drop in binding against h4A11.v7,[10],6 fold
B8,HEKBlue TGFβ blocking IC50,[21],50 pM
same,HEKBlue TGFβ blocking IC50,[22],> 200000 pM
same,HEKBlue TGFβ blocking IC50,[23],30 pM
same,Kd,[24],8.9 pM
same,Kd,[25],15.9 pM
same,fold drop in binding against h4A11.v7,[10],2.5 fold
B9,HEKBlue TGFβ blocking IC50,[21],40 pM
same,HEKBlue TGFβ blocking IC50,[22],> 200000 pM
same,HEKBlue TGFβ blocking IC50,[23],160 pM
same,Kd,[24],9.3 pM
same,Kd,[25],9.2 pM
same,fold loss of blocking against h4A11.v7,[8],~2 fold
same,fold drop in binding against h4A11.v7,[10],~2 fold

# — patent US20210301005A1 (Genentech, published 2021)
